The values that follow come from patent US20030152576A1 (published 2003).

T1: human CD14 with amino acids 39, 40, 41, 43 and 44 substituted with alanine (mut6) (human, UniProt P08571 20-345)
T1 construct: whole, on cells; The positions count on the mature protein (add 19 for the precursor entry); also called CD14mut6; CHO-Mut6
T1 sequence (looked up): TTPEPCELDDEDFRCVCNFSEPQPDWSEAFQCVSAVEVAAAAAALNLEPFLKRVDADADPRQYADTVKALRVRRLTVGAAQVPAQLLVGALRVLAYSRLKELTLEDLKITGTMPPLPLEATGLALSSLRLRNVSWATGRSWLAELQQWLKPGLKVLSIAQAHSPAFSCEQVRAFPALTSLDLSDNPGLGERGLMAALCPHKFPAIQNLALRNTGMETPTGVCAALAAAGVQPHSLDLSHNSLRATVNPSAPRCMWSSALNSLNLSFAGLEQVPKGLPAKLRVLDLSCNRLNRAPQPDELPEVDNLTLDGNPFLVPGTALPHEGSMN

B1: recombinant soluble CD14 (receptor)
chain: TTPEPCELDDEDFRCVCNFSEPQPDWSEAFQCVSAVEVEIHAGGLNLEPFLKRVDADADPRQYADTVKALRVRRLTVGAAQVPAQLLVGALRVLAYSRLKELTLEDLKITGTMPPLPLEATGLALSSLRLRNVSWATGRSWLAELQQWLKPGLKVLSIAQAHSPAFSCEQVRAFPALTSLDLSDNPGLGERGLMAALCPHKFPAIQNLALRNTGMETPTGVCAALAAAGVQPHSLDLSHNSLRATVNPSAPRCMWSSALNSLNLSFAGLEQVPKGLPAKLRVLDLSCNRLNRAPQPDELPEVDNLTLDGNPFLVPGTALPHEGSMNSGVVPACARSTLSVGVSGTLVL
notes: also called sCD14; recombinant sCD14
B2: biotinylated recombinant HBsAg particles, which only contain S protein (b-rHBsAg) (other)
chain: MENITSGFLGPLLVLQAGFFLLTRILTIPQSLDSWWTSLNFLGGSPVCLGQNSQSPTSNHSPTSCPPICPGYRWMCLRRFIIFLFILLLCLIFLLVLLDYQGMLPVCPLIPGSTTTSTGPCKTCTTPAQGNSMFPSCCCTKPTDGNCTCIPIPSSWAFAKYLWEWASVRFSWLSLLVPFVQWFVGLSPTVWLSAIWMMWYWGPSLYSIVSPFIPLLPIFFCLWVYI
modifications: biotinylated on lysine residues (the three lysine residues which can become biotinylated all lie in the major antigenic region of the S protein; positions 122 and 141 are named)
notes: domain: S protein; Multimeric virus-like particle with lipid; also called biotinylated rHBsAg

One test addresses human CD14 (human) (UniProt P08571). Kind of test: flow cytometry, hCD14-CHO cells, FITC-labelled mAb. (Flow cytometry measures light scatter and fluorescence of single cells or particles in a stream.)
The next test deals with mouse CD14 (mouse) (UniProt P10810). Kind of test: flow cytometry, mCD14-CHO cells, FITC-labelled mAb.
mouse CD14 (mouse), sequence (P10810 16-336): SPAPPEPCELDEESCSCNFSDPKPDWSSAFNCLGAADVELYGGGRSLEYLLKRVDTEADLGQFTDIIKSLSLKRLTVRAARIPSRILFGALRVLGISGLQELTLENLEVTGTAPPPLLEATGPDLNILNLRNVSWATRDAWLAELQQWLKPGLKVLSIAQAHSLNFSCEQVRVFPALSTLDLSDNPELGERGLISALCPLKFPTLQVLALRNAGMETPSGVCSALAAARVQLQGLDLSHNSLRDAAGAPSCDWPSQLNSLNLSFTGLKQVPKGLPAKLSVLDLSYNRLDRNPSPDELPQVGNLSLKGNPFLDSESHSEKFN
Test [1] deals with B2. Kind of test: flow cytometry competition; b-rHBsAg pre-incubated with recombinant sCD14 in 2% HS-HBSS, then binding to monocytes of PBMC.
Test [2] has as its target T1, human CD14 with amino acids 39, 40, 41, …. As to the kind of experiment: flow cytometry on CHO cells transfected with mut6, 2% HS-HBSS, Strep-PE.

Some results are limits rather than exact numbers.

Regarding “Mouse anti-human CD14 (clone M(P9)) (antibody)”, the results for the Median Fluorescence with human CD14 (human) and with mouse CD14 (mouse) were 502 and 0, respectively.
For “Mouse anti-human CD14 (clone My4) (antibody)” the same measures were 291 and 0.12.
On to “Rat anti-mouse CD14-FITC (clone rmC5-3, IgG1) (antibody)”, for which the Median Fluorescence in the test with human CD14 (human) amounted to 0; with mouse CD14 (mouse), 24.
By IC50 is commonly meant the concentration that inhibits the measured activity by half. Regarding B1, the IC50 in test [1] was over 2.5 µg/mL.
Turning to B2, the binding result in test [2] was “no binding”.
